Each block holds one substance with its values, some of them ahead of it.
Columns and labels:
[1] = target: calmodulin on CaM-Sepharose 4B (UniProt P0DP23); assay: pull-down
[2] = target: PDZ123 of PSD-95 (residues 61-403), soluble recombinant fragment with all three PDZ domains (murine) (UniProt Q62108); assay: SPR
[3] = target: calmodulin (CaM), used with Ca2+ (UniProt P0DP23); assay: SPR
[4] = target: PDZ3 of PSD-95 (residues 302-402), soluble recombinant domain (murine) (UniProt Q62108); assay: SPR
[5] = target: PDZ1 of PSD-95 (residues 61-151), soluble recombinant domain (murine) (UniProt Q62108); assay: SPR
[6] = target: PDZ123 (PSD-95 residues 61-402)-HaloTag fusion on HaloLink resin (murine) (UniProt Q62108); assay: pull-down

Kd [1]: 210 nM
Substance: sr-synGAP (C-terminal truncated synGAP, residues 103-725 of synGAP A1-α1) (domain or fragment)

fold increase of KDapp over unphosphorylated r-synGAP [2]: 10 fold
Substance: r-synGAP phosphorylated by CaMKII (domain or fragment)

Kd [1]: 31 nM | Kd [3]: 9 nM | Kd [4]: 730 nM | Kd [5]: 140 nM
Substance: r-synGAP (soluble recombinant synGAP, residues 103-1293 of synGAP A1-α1) (domain or fragment)

percent reduction of binding relative to wild-type [6]: 50% | fold increase of KDapp over wild-type r-synGAP [2]: 4 fold
Substance: r-synGAP S1283D (domain or fragment)
